This note sets out measurements from a protein production outcome set (Wang et al. 2014).
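Further: failed if final PepcDB status was selected cloned or expressed and not failed if soluble or beyond.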

A short description of the series: label from the status in PepcDB records.
For “MIDDLLNFFNSFNVVKNYKLINQLKNEVDTLKSRLDIPRELLDGFYADRNSREYREVYEKDAPLVTVCIGTYNRGKLLVERSVRSVLEQSYGNIELIVVGDCCTDDTPRLVQGITDPRFRFINLPERGNYPENPLHRWCVAGTVPFNYALSQARGDFITHLDDDDEFVPDRIEKLVKFIQREKADLVWHPFWYERSNGRWAMRKAQEFSGGKVTTSSIFYHRWFTAVPWDIEAYRYQEPGDWNRLRKIKYLGARVARYPEPLLRHYCERNQESLSSRTIQTRNTKLEHHHHHH”, the protein production entry was “failed”.

On to “IIGNAEAICLPELGITHLEARIDTGAQTSSLHVDNIDCFEKDGQSYVAFDLHPDVYHLEQVVRCTAKLKANRKVKSSNGTFEHRCVITTMLRLGDQEWPIDITLTNREKMTYMMLLGRQGMADKVLVDPSQSH”, for which the protein production entry is recorded as “failed”.

As to “QPTGTMTTDSKLTSKESALALTNSAYLKNTVFNKMTPGWGCNTILLLEYMTGKATSENSQSNYKDFQDLLVSDRSLYIEDWWQDCYAGIANCNLALQKLGEFENLDASLVNGYMAEVKFMRALYYFYLVRIFGDVPKITTVQSELGELQVSRAPVKEIYDEIIIPDLLEAEQSDLAFSDHTGRVSMGAVKALLADVYLTYAGYPLQGGKSYYAESAKRSLEVIKSNEYTLFTDYESLRLPSQNNKGEFIYQVQFSLNKRHNESVRIFLPSRSGISAYDLEYGSLIPTKEFVESFEKGDKRTEEKQYFFTNYKGHPSKFSPGAAELEFMDLNGYYIYKFFDQVAVDNTAKSDLNWSVYRYTDVLLMYAEAQVNADGTPNQQSIDIVNQIRGRAGLAPFKQTNASAFLEEVWDQRYFDLCYENKMWFDMLRTRKIRDDKSGEYVDFIGYKTNWGKVYTETQLLFPIPLSERQANPNLTQNQGY”, the protein production entry was “not failed”.

For the sequence “MDTIRSIFIIWKDDRMSFLNNSIIYHIAIILYACSISLYFIDYFQSNRKANRFAFWLLSIVWVLHSIFMLLRATDSETNPLLTLLSGIYFYVWLLITMSLVINRFMRIDFLVFFTNVVAFGVSAFSIFTPLGKMSPVLAEQLVSELVYVHVGMAIISYATFTVSFIFSIMYLLQYRLLKKKKWNARLRRLGNLPKLESMSYGLNLFSVPFFLLAILLGCIWGYTKLDNFHWYDTKVIGSFVVLFVYCAGLYLRAADVLQGKKIVQWNIGAFLVMLINIFLLSSLSNFHFWYL”, the protein production entry is on record as “failed”.

With “MKQIAFIGLGHMGAPMATNLLKAGYLLNVFDLVQSAVDGLVAAGASAARSARDAVQGADVVISMLPASQHVEGLYLDDDGLLAHIAPGTLVLECSTIAPTSARKIHAAARERGLAMLDAPVSGGTAGAAAGTLTFMVGGDAEALEKARPLFEAMGRNIFHAGPDGAGQVAKVCNNQLLAVLMIGTAEAMALGVANGLEAKVLAEIMRRSSGGNWALEVYNPWPGVMENAPASRDYSGGFMAQLMAKDLGLAQEAAQASASSTPMGSLALSLYRLLLKQGYAERDFSVVQKLFDPTQGQ”, the protein production result is reported as “not failed”.

On to “MNQLSRSACTAPQRGGAWQWIACWALLLFTLLVAPLAAAQAVQGNASQEAALTVAPAPRVGVVTMQPGEVFFERFGHDAIVVVDPRTQQATSYNFGFFDPSEPDFVPRFARGDMMYYLVALPLEEDLSQYRDAGRGVSVQWLDLPPDQARALAEGLAVRSQPENARYHYDYFMANCATMVRDTLDRAMGGALKSQLAGRSRGNTFRSEAVRLASPAPWMWLGFDLGLGPYADRPLSRWEEAFVPMRLADSLTQVHNSAGRPLVQSTQVLLPHRIAPEPAEQQRHWWPWLLTGLIVAAGVLALGRRQRLLAGLALPFWLLCAIGGGLLVYLWGFTAHASAWGNRNLLLVNPLCMLLWFGGIRLQLGHRPGRWFNVLSWVVAACALAALVIHWLSFQAQDNLQWVMLLLPIHTALAIALRLRDLPVRTR”, for which the protein production entry is given as “failed”.

On to “MNEYLQAVLMILLTIVLYYVSKKIQDKYNNPLLNPALIASIAIIIVLLVCGVSYKGYMKGGTWINHVLNATVVCLAYPLYQNKKKIKKYLTIIFTSVLTGVVLNFVLVFTTLKIFGYSKDTIVTLLPRSITAAVGIEVSQELGGTDTITVLFIITTGLIGSILGSMLLRMGGFKSSIARGLTYGNASHAFGTAKALELDIESGAFSSIGMILTAVISSVLIPVLILLFY”, for which the protein production entry was “failed”.

In the case of “MRLAGVGKSCLFAGRCAGIRPRRRLRWVLHFTATVPLNSMSSRRAFLRQCGLALAAAPALSSLPPWLSSADGFTSLRGGIGTFTQRGGTIGWLATDDGIAVVDTQSPQSAPDCWNGLRERSDSPLAMVINTHHHGDHVGGNGVFARHTDRLVAHANVPELMRAGAEDGAADEKTYPTETFQDTWSEPLGDETITLRYRGPAHTGGDAIVVFENANIVHVGDLVFNRAYPFIDVGGGADSQGWIDSLETIHGALDDDTIVIHGHGNPDFGVTGGREDLLVMRDFLSALNEYVTQQRQAGASLDEMKQTKVLDGFEAFNFDWALSLADCIEAVYREQTAG”, the protein production result is “failed”.

For “MKIFRNPPLVMSGLTLGLFALGNLLKLYHPSLRHLLSIIALLLYLFLILSILKNLSQALEQIKHPLIASIFPTFFMSGMLLAGYIQTFPFLEDWVTLISLTIWWLAFLGNAGLIAYFTIKFVIPFHWEHVFPSWSVLYVGIAVATLTAPISGQYILGQIIFWTCLLLTLLILPLMTIKAYCIGLPETAKPNICTFCAPLSLLLAGYLKTFPPEQSPNTNFVWLLLLASQLLYFFVVLQLPVLLKREFNPGFSAFTFPFAISATALRSAGSYLHLQLPLFQLLVKLEELLASILVLFILYSYLRFLSKQEDLPSN”, the protein production entry is “failed”.

With “MSKRSEVLEQFHGGLKNLELQTKRRMGLWGDPKENEEQTLFLEEIENELKQLENKENLKADNNTEFKEENQDTKENQPNDLFSLPLPTQTTINGIKEFVEEPVIETEKKETSQNEPIQEKKERIFKNFFSRIGFDKSIAPTMLFEEVRDASVIYHLEKKLGDYIFYVACFFFGTTALLIILLTILLPLKQKEPYLVQFSNNKENFALVQKADSSITANKALIRSLVGAYVLNRESITHIEQHEKMRQNTIKEQSSNEVWYEFEKLIAHYDSIYTNPLLTRKVKIANIYLDKDLAYIDIEVSLYHSGELESLKRYKVVMSFEFKKQEINFDSMSLNPTGFMVTSYDVTEIAIVNYPTAKAIGLFLAS”, the protein production entry is reported as “failed”.

For “MSRVAPRDSAAQAASAVAESVRYQGRKASRQGSEQRRQAILDAAMRLIVRDGVRAVRHRAVAAEAQVPLSATTYYFKDIDDLITDTFALFVERNAEALSAFWSSVEGDLQEMAAVLADDPGARGSLVERIVELAVQYVQVQLTERREHLLAEQAFRQEALLNPRLRELADAHQRILSLGAVHFFQVLGSGQPEQDAKVLTSIILQMEYQGLVDGVEQLAVDEMRAILRRYLNLVMGL”, the protein production entry is recorded as “not failed”.

With “MDDSMTSIKVHCLVSCFCEIIKRRSDIDFRPFYFGLWDGDFDITEGGIISYHSENINHDHYLLWYEKLYGMKVNEWYDHAKDKDSNVETFLQLVENKPENRYVIVMVDMSLLPERENKFHQKPFPHYLMISETEKEEEWFMLDPDFRWEGNMEREKVLYSVQDNPFGGGYFIDVEEIQEPTAEMVASYFIETFKRNDNELTMELKNLIIKMANEEEGYLLSGLVAAVKQIPVLAIRKYSYEHAFAYFRETLQYSEQEFDYWCDRVEDIVQGFTNVQYRAIKMAMTNNKGMLLSIVEKLDEMNAIELQIKTELERQFLSWKEMKSNESVLVF”, the protein production entry was “failed”.

On to “MSMKGISSAESDKLSRRISLTHKRNSEELDVFEAAVYFGYNEASSGDHGHTQKYGYNAAREENPRRWGILGGGRRISLDLPIRCSEQVYHLQQDHHEKHEVTTIKERLGNVRHKQPSSPGGKIASFLNSLFHQAGSKKNKSKSKSKTKPTDPEVEEEIPGGGWMRRRRRSSISHFFSSSRSTSTTTTTTASSSSKSLISSSSSGFRTPPPYLNTPTKNYKQFLNYTSATKQVGEEETKTNKEYSWLDEKLKVMESLSENQRIWSDDEDIDDDRRIKREGEDDGMESDSSSDLFELQNYELSRGGLPVYETTNVANINKTHI”, for which the protein production result is listed as “failed”.

For the sequence “MDAADCYLEGNADAVEFCPHESYANLLAASTYTLQEGDCPSRSGSVYLFDVGDVEDVGLNLIQKIDTAGVFDIRWSRGGDGGDVALAQADADGCLIVYKIDETESKGTLREVSGKRISSSMCLCLDWDPSSTSIVVGLSDGSASVVSFTDSNLETVQEWKGHDFELWTASFDLNNPNLVYTGSDDCKFSCWDIRDSPADNRVFQNSKVHTMGVCCISSNPSDPYSIFTGSYDETLRVWDTRSVSRPLNETSVSLGGGVWRIKHHPSLSGVVLAACMHNGFALAKVSDGKGEVLESYNKHHSLAYGADWYRGKDQKQSVVATCSFYDRLLRVWMPITDFSTRCS”, the protein production entry is listed as “failed”.

For “MTENAEKFLWGVATSAYQIEGATQEDGRGPSIWDAFAQRPGAIRDGSTGEPACDHYRRYEEDIALMQSLGVRAYRFSVAWPRILPEGRGRINPKGLAFYDRLVDRLLASGITPFLTLYHWDLPLALEERGGWRSRETAFAFAEYAEAVARALADRVPFFATLNEPWCSAFLGHWTGEHAPGLRNLEAALRAAHHLLLGHGLAVEALRAAGARRVGIVLNFAPAYGEDPEAVDVADRYHNRFFLDPILGKGYPESPFRDPPPVPILSRDLELVARPLDFLGVNYYAPVRVAPGTGTLPVRYLPPEGPATAMGWEVYPEGLYHLLKRLGREVPWPLYVTENGAAYPDLWTGEAVVEDPERVAYLEAHVEAALRAREEGVDLRGYFVWSLMDNFEWAFGYTRRFGLYYVDFPSQRRIPKRSALWYRERIARAQT”, the protein production result is listed as “not failed”.

“MTEMELKLIKIDTSHYFEKKPGLGERVDYAGRCFYNKFQRVNAMLTSSLIQKHLKREIEIAHNLILRNDKVENIVFDYNGRNPERFYHKAQLLLREEGFMNFTAYNTKTPGHLHLYVHKGHTELGEGERLVKTLSMKLAQGLPKEWKVFPSNEWPKEFNILALPYEVFAKERGSSWAKHL”: the protein production result is “not failed”.

Consider “MDVSVFLAALGISLLELTEAGAIAAIYHNIYKNNLPFIYAVLGVAIVLIPTFTLGKLIYLVPLNYVLLASAVILFYFGYRLIRSARRSFKGIKKKGGEEKEEGLSVVFTVSAIEGLEASLVILALIPQSYSSAVMGAILASVLVVILTAILKSQVARIRLPHLKFVLSALLFSLGTLWISEVVFDIPDLILPLFFLAYLGINYVIIKI”, for which the protein production result was “failed”.

On to “MPLLPHNRTALGFLLRHLIAGLTGGLVFGGLILALDISGLRSMLMASQDGLLYTLLLFFGLSVTFGGVAMGVGVMSLGEDKN”, for which the protein production entry is reported as “failed”.

For the sequence “MFDNLTDRLSRTLRNISGRGRLTEDNVKDTLREVRMALLEADVALPVVREFINRVKEKAVGHEVNKSLTPGQEFVKIVRNELVAAMGEENQTLNLAAQPPAVVLMAGLQGAGKTTSVGKLGKFLREKHKKKVLVVSADVYRPAAIKQLETLAEQVGVDFFPSDVGQKPVDIVNAALKEAKLKFYDVLLVDTAGRLHVDEAMMDEIKQVHASINPVETLFVVDAMTGQDAANTAKAFNEALPLTGVVLTKVDGDARGGAALSIRHITGKPIKFLGVGEKTEALEPFHPDRIASRILGMGDVLSLIEDIESKVDRAQAEKLASKLKKGDGFDLNDFLEQLRQMKNMGGMASLMGKLPGMGQIPDNVKSQMDDKVLVRMEAIINSMTMKERAKPEIIKGSRKRRIAAGCGMQVQDVNRLLKQFDDMQRMMKKMKKGGMAKMMRSMKGMMPPGFPGR”, the protein production entry is reported as “failed”.

On to “MQPRLVIAGTHSGVGKTTVTLGLMAAFVEKGNIVQGFKCGPDYIDPSYHRAVTKRASRNLDSWMVSEDVVNDIFIEGCNGADLSIIEGVMGFYDGKASTSDKGSTADISLLLQAPVLLVVDISGMARSAAAVVKGFQQLNEKVKIAGVILNGAGSERHAEMCSEAIKEACGIPALGYLKKGDVPSIPERHLGLVPALERGEHDSLFSQLAAVVSRQFDLERIERLALEASALSRRTNLFQQTKRPSVVKIAVAYDAAFHFYYEENFTLLRQAGAELVYFSPLRGEDLPSHCDGLYLGGGFPEEFADELSQWIKDHPQLKKRVQSGLPTLAECGGYMFLGEQLTTTKGKTVEMAGVIPMVVQMENKLVSLGYRDVTPLDDSFLLSKGQQIRGHEFHYSKAVYTETERPAYFVKGLFGEGKEGYMSDHLLAGYTHLHFASEPAVATQWVKACEVYKNRRLHRGQVSQLEHHHHHH”, for which the protein production result is “not failed”.
